Assay results published in the nanobody polyreactivity screen of Harvey et al. (2022).

Assay: yeast display, Sf9 membrane polyspecificity reagent, FACS + sequencing; frameworks hold sequencing errors
In short: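 Galactose induction of a Saccharomyces cerevisiae BJ5465 synthetic nanobody display library ran 36–48 hours. The cells were then stained for 1 hour at 4 °C with 10% biotinylated, detergent-solubilized Sf9 membrane reagent, pulled down on streptavidin microbeads and FACS-sorted into low and high (top ~1%) gates on expression and reagent-binding fluorescence. Labels for polyreactivity follow the gate of origin.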

| Sequence | polyreactivity (PSR sort gate) |
| --- | --- |
| QVQLVESGGGLVQAGGSLRLSCAASGSIFLYYAMGWYTQAPGKERELVASISSTGSTYYADSVKGRFTISRDNAKNTVYLLINSLKPEDTGVYYCAKRRWYYYPRYSLSTQMDYWGQGTQVTVSS | high polyreactivity |
| QVQLVESGGGLVQAGGSLRLSCAASGRIFAYNAMGWYRQAPGKEREVVAAIDSGGDTNYADSVKGRFTISRDNAKNTVYLQMNSLKPEDTAVYYCNVTYSGQATFAYTDSARYDYWGQGTQVTVSS | low polyreactivity |
| QVQLVESGGGLVQAGGSLRLSCAASGRIFDRYAMGWYRQAPGKERELVAAISDRGGSTYYADSVKGRFTISRDNAKNTVYLQMNSLKPEDTAVFYCAKGPSGVRTYREYDSWGQGTQVTVSS | low polyreactivity |
| QDQLVESGGGLVQAGGSLRLSCAASGSIFVNYAMGWYRQAPGKERELVAAISRSGGRTYYADSVKGRFTISRDSAKITVYLQMNSLIPEDTAVYYCNVDPVLRTIEGDYWGQGTQVTVSS | high polyreactivity |
| QVQLQESGGGMVQAGGSLRLSCAASGYISWADYMGWYRQAPGKERELVAGIGYGSTTYYADSVKGRFTISRDNAKNTAYLQMNSLKPEDTAVYYCNADVRYGRDHWGQGTQVTVSS | low polyreactivity |
| QVQLVESGGGLVQAGGSLRLSCAASGSTSAYYAMGWYRQAPGKERELVAAISWSGGLTYYADSVKGRFTISRDNAKNTVYLQMNSLKPEDTAVYYCAASSYPYGYDYWGQGTQVTVSS | high polyreactivity |
| QVQLEESGRGLVQAGGSLRLSCAASGSTLNYNTMGWYRQAPGKVRELVATISSRGGRTDYADSVKGRFTFSRDNAKNNVYLQMNSLIPEYTAVYSCNALPRVVYTVGQSTFYYWGQGTQVTVSS | high polyreactivity |
| QVQLVESGGGLVQAGGSLRLSCAASGSTFNYNAMGWYRQAPGKERELVAAITYSGSSTYYADSVKGRFTISRDNAKNTVYLQMNSLKPEDTAVYYCAAPPYNRPGYGYDYWGQGTQVTVSS | high polyreactivity |
| QVQLVESGGGLVQAGGSLRLSCAASGFTLGYYAMGWDRQAPGKERELVASISITAGSTYYAVSVMGRLTISRDNAKNTVYLQMNSLKPEDTAVYYCAAKRRTRQSYYTVYYWGQGTQVTVSS | high polyreactivity |
| QVQLVESGGGLVQAGGSLRLSCAASGRTINRYAMGWYRQAPGKERELVAAISTSGGTTYYADSVKGRFTISRDNAKNTVYLQMNSLKPEDSAVYYCAAVARRGSYLGQRLDYWGQGTQVTVSS | high polyreactivity |
| QVQLVESGGGLVQAGGSLRLSCAASGFIIPVYAMGWYRQAPGKERELVAAITYSGARTYYADSVKGRFTISRDNAKNTVYLQMNSLKPEDTAVYYCAAAPGYLKYSPGHYGYNYWGQGTQVTVSS | high polyreactivity |
| QDQLVESGGGLVQAGGSLRLSCAASGRTFIYYVMGWSRQAPGKERELVAAISLRGSSTRYADSVKGRFTISRDNAKNTVYLQMNSLKPEDTAVYYCAARPRLSRYDYWGQGTQVTVSS | high polyreactivity |
| QVQLVESGGGLVQAGGSLRLSCAASGYIFATYAMGWYRQAPGKERELVAAISWSGGRTYYADSVKGRFTISRDNAKNTVYLQMNSLKPEDTAVYYCNKATSRRVYGYDYWGQGTQVTVSS | high polyreactivity |
| QVQLVESGGGLVQAGGSLRLSCAASGRTFSSYAKGWYRQAPGKERELVAAITSGGSTYYADSVKGRFTISRDNAKNTVYLQMNSLKPDDTAVYYCAAEQHGYYWHSWNRYIFYYWGQGTQVTVSS | high polyreactivity |
| QVQLVESGGGLVQAGGSLRLSCAASGITFGRNAMGWSRQAPGKERELVAAISRGGSTNYADSVKGRFTISRDNAKNTVYLQMTRLKPEDTAVYYCATAYRGRAWGYDYWGQGTQVTVSS | high polyreactivity |
| QVQLVESGGGLVQAGGSLRLSCAASGRILEYNAMGWYRQAPGKERELVAAITSDGSTNYADSVKGRFTISRDNAKNTVYLQMNSLKPEDTAVYYCNTRYSLYTKYAYYDELDYWGQGTQVTLSS | low polyreactivity |
| QVQLVESGGGLVQAGGSLRLSCAASGRIGYYAMGWYRQAPGKERELVAAISYGGGSTYYADSVKGRFTISRDNAKNTVYLQMNSLKPEDTAVYYCAARWGISWRGYGYWGQGTQVTVSS | high polyreactivity |
| QVQLVESGGGLVQAGGSLRLSCAASGRTFVGNAMGWYRQAPGKERELVAVITGSGARTYYADSVKGRFTISRDNAKNTVYLQMNSLKPEDTAVYYCAAAGYSGQYRSYYWGQGTQVTVSS | high polyreactivity |
| QVQLVESGGCLVQAGGSLRLSCAASGSIIWYYAMGWYRQAPGKERELVAAISTGGSTYYADSVKGRFTISRDNAKNTVYLQMNSLKPEDTAVYYCAAGAFGQILNYWGQGTQVTVSS | high polyreactivity |
| QVQLVESGGGLVQAGCSLRLSCAASGSIFEPYVMGWYRQAPGKERELVAAIRQTGGSTYYADSVKGRFKISRDNAKNTVYLQMNSLKPEDNAFYYCNAEHNPSGLYDYRGVECEMGYWGQGNQVTVSS | low polyreactivity |
| QLQLVESGGGLVQAGGSLRLSCAASGLIFIYYAMGWYRQAPGKERELVASITNSGGSTYYADSVKGRFTISRDNAKNTVYLQMNSLKPEDTALYYCAADYKTIVQRYGYYYWGQGTQVTVSS | low polyreactivity |
| QVQLVESGGGLVQAGGSLRLSCAASGSTFPLYTRGWYRQAPGKERELVAAISGGSTTYYADSVKGRFTISRDNAKNTVYLQMNSLKPEDTAVYYCAAYAYTSRWYGFDYWGQGTQVTVSS | low polyreactivity |

| Sequence | polyreactivity (PSR sort gate) |
| --- | --- |
| QVHLVESGGGLVQAGGILRLSCAASGFIFLQYTMGWYRPAPGKERELVAGISWSGDSTYYADSVKGRFTISRDNAKNTVYLQMNSLKPEDTAVYYCNADWRAAGSDFAFGNPQLYDDWGQGSQVTVSS | low polyreactivity |
| QVQLVESGGGLVQAGGSLRLSCAASGRIFVGYPMGWYRQAPGKERELVAAITSGGSTYYADSVKGRFTISRDNAKNTVSFQMNSLKPEDTAVYYCNAAYQFDSYHLGGYRYEYWGQGTQVTVSS | low polyreactivity |
| QVQIVESGGRLVQAGCSLRLSCAASGSTFKINAMGWYRQAPGKEWELVAVIRSRGTSTYYADSVKGRFTISRDNSKNTVYLQMNSLKPVDTAVYNCAAGRINGGDYWGQGTQVTVSS | high polyreactivity |
| QVQLVESGGGLVQAGGSLRLSCAASGRTFWPYAMGWYRQAPGKERELVAAISTSGGSTYYADSVKGRFTISRDNAKNTVYLQMNSLKPEDTAVYYCAAYSTLTPAYEYWGQGTQVTVSS | high polyreactivity |
| QVQLVESGGGLVQAGGSLRLSCAASGSILYVYAMGWYRQAPGKERELVATITGRVVSKNYADSVKGRLTLSRDNAKNSVYLQMNSLKPEDTAVYYCAARTRRRRGEYDYWGQGTQVTVSS | high polyreactivity |
| QVQLVESGGGLVQAGGSLRLSCAASGRIFGYAMGWYRQAPGKERELVAAITSSGGRTYYADSVKGRFTISRDNVKNTVYLQMNSLKPVDTAVYYCAKKWPVYRSYDYWGQGTQVTVSS | high polyreactivity |
| QVQLVESGGGLVQAGGRLRLSCAASGSIFRIYTMGWYRQEPGKERELVAAINSGGSTNYADSVKGRFTISRDNAKNTVYLQMNSLKPEDTAVYYCAATWWQYDQGLHRYDYWGQGTQVTVSS | high polyreactivity |
| QVQLVESGGGLVQAGGSLRLSCAASGSIFWKYAMGWYRQAPGKERELVAAISRSSSTTYYADSVKGRFTISRDNAKNTVYLQMNSLKPEDTAVYYCAADWRTKGYDSLGQGTQVTVSS | high polyreactivity |
| QVQLVESGGGLVQAGGSLRLSCAASGRTFGRYAMGWYRQAPGKERELVARISFTGGSTYADSVKGRFTISRDNAKNTVYLQMNSLKPEDTAVYYCNVPYYINHKFYDSPFVQRYDYWGQGTQVTVSS | low polyreactivity |
| QFQLVESGGGLVQAGGSLGLSCAASGRSFAQYTMGWYRQAPGKERELVAAISWSGTSTYYADSVKGRFTISRDNAKNTVSLQMNSLKPEDTAVYYCAALGRYSVEYGYWGQGTQVTVSS | high polyreactivity |
| QVQLVESGGGLVQAGGSLRLSSAASGRIFYGYAMGWYRQAPGKERELVAGISYRGARTYYADSVKGRFTISRDNAKNTVYLQMNSLKPEDTAVYYCNAVPYYPFAFGALDYWGQGTQVTVSS | high polyreactivity |
| QVQLVESGGGLVQAGGSLRLSCAASGSIFGGYAMGWYRQAPGKERELVAAISSSGVRTYYADSVKGRFTISRDNAKNTVYLQMNSLKPEDTAVYYCAADRSRSIIPFDYWGQGTQVTVSS | low polyreactivity |
| QVQLVESGGGLVQAGGSLRLSCAASGTIFSRNAMGWYRQAPGKERELVAAITGSGSSTYYADSVKGRFTISRDNAKNTVYLQMNSLKPEDTAVYYCNAARVYLSEWGQGTQVTVSS | high polyreactivity |
| QVQLVDSGGGLVQAGGSLRLSCAAYGSIFKYYCMGWYRQAPGKERELVATISKRGGSTYYADSVKGRFTISRDNAKNSVYLQMNSLKPEDTAVYYCAKDSPALRPLTWQQLYDFWGQGTQVTVSS | high polyreactivity |
| HVQLVESGRGLVQAGGSLRLSCAASGSTFPFYDRGWYRQAPGKERQLVDAITASVGNTYYADSVKGRFTISRDNAKNTVYLQMNSLKPEDTAVYYCNADELYTYIPDFDYWGQGSQVTVSS | low polyreactivity |
| QVQLVESGGGLVQAGGSLRLSCAASGSTFYYYAMGWYRQAPGKERELVAAITKSGGSTYYADSVKGRFTISRDNAKNTVYLQMNSLKPEDTAVYYCAAYLRSGYKFDYWGQGTQVTVSS | low polyreactivity |
| QGQLVESGGGLVQAGGSLRLSCAASGRIFRANAMGWYRQAPGKERELVAAIDASGGSTYYADSVKGRFTISRDNAKNTVYLQMNSLKPEDTAVYDCAADRGFLRSFAPGNMDYWGQGTQVTVSS | low polyreactivity |
| QVQLVESGGGLVQAGGSLRLSCAASGRIFVANAMGWYRQAPGKERELVAAISGRGSRTYYADSVKGRFTISRDNAKNAVYLQMNSLKPEDTAVYYCNARQRRNPGGYGYWGQGTQVTVSS | high polyreactivity |
| KVQLVESGGGLVQAGGRLRISCAASGRICYSNVMGWSRQAPGKERELVAAIFSGGSTYYADSVKGRFTISRDNAKNTVYLQMNSLKPEDTAVYDCAADYYYPFDYWGQGTQVTVSS | low polyreactivity |
| QVQLVESGGGLVQAGGSLRLSCPASGSIFSLNAMGWYRQAPGKERELVAGISWSGGSTYYADSVKGRFTISRDNAKNTVYLQMNSLKPEDTAVYYCAARRYYPYISSGPYYYWGQGTQVTVSS | high polyreactivity |
| QVQLVDSGGGLVQAGGSLRLSCADSGFTFSWNVMGRYRQAPGKEREYVAAISTSYGGRYYADSVKGRFTISRDNAKNTVDLQMNSLKPEDTAVYYCNDDIVGFQWGYDYWGQGTQVTVSA | low polyreactivity |
